Laboratory results published in patent US20190117751A1 (SAPPORO MEDICAL UNIVERSITY, published 2019).

Columns and labels:
[1] = biological target: T1, HLA-A24 molecule on the cell surface (HLA-A*2402) (human); experiment: HLA-A24 stabilisation assay on T2-A24 cells, flow cytometry with C7709A2
T1 construct: also called HLA-A24 antigen
Procedure: T2-A24 cells, which are HLA-A24-expressing T2 cells, were preincubated in a CO₂ incubator at 27° C. overnight. The cells collected were resuspended in Opti-MEM and plated on a round bottom 96 well plate (Corning) with about 1×10⁵ cells/200 μL per well. A subject peptide was added at concentrations of 0.33 μM, 1 μM, and 10 μM, and incubation was carried out in a CO₂ incubator at 27° C. for 3 hours and subsequently at 37° C. for 2.5 hours. Subsequently, the cells were subjected to centrifugation (380 g, 5 minutes) as they were on the plate, resuspended in 100 μL of a C7709A2 monoclonal antibody-producing hybridoma culture supernatant, and incubated on ice for 45 to 60 minutes. The cells were washed with ice-cooled PBS and then incubated together with an FITC-conjugated goat anti-mouse IgG antibody (KPL, Gaithersburg, Md.) on ice for 30 minutes.

[2] = biological target: T1, HLA-A24 molecule on the cell surface …; experiment: not clear: FIG. 7 has no binding assay panel

binding result [1] | binding result [2] | Binder
binds | – | HWNDTRPAHF (also called HF10) [PVT1-derived natural antigen peptide of SEQ ID No: 1 (HWNDTRPAHF)]
– | binds | IFQGNVHNF (Synthetic peptide) [SNRNP40-derived natural peptide of SEQ ID No: 4 (IFQGNVHNF)]
binds | – | RYGNVSHF (Synthetic peptide; also called RF8) [SUV39H2-derived natural antigen peptide of SEQ ID No: 2 (RYGNVSHF)]
